Paper PMC3290555

Columns and labels:
[1] = target: N-terminal domain of murine CNPase (residues -1-160) (mouse); test: SEC; Superdex 75 10/300 GL; 20 mM Na-HEPES pH 8, 200 mM NaCl, 1 mM DTT; 250 µl at 1.7 mg/ml injected; molecular weight markers run under the same conditions
[2] = target: full-length CNPase construct (residues -1-378), mouse 2',3'-cyclic nucleotide 3'-phosphodiesterase lacking the 22-residue C-terminal tail (mouse); test: SEC-MALS; Sephadex S-200 column with online light scattering and refractive index detectors; 20 mM Bis-Tris-HCl pH 5.5, 300 mM NaCl, 1% glycerol, 1 mM DTT; monomer-dimer equilibrium

Substance	stoichiometry N [1]	stoichiometry N [2]
N-terminal domain of murine CNPase (residues -1-160) (domain or fragment)	2	–
full-length CNPase construct (residues -1-378), mouse 2',3'-cyclic nucleotide 3'-phosphodiesterase lacking the 22-residue C-terminal tail (enzyme)	–	2
